Results: IntAct's records for PubMed 35512704

B1: Speckle-type POZ protein (Homo sapiens), O43791 (parent)
chain: MSRVPSPPPPAEMSSGPVAESWCYTQIKVVKFSYMWTINNFSFCREEMGEVIKSSTFSSGANDKLKWCLRVNPKGLDEESKDYLSLYLLLVSCPKSEVRAKFKFSILNAKGEETKAMESQRAYRFVQGKDWGFKKFIRRDFLLDEANGLLPDDKLTLFCEVSVVQDSVNISGQNTMNMVKVPECRLADELGGLWENSRFTDCCLCVAGQEFQAHKAILAARSPVFSAMFEHEMEESKKNRVEINDVEPEVFKEMMCFIYTGKAPNLDKMADDLLAAADKYALERLKVMCEDALCSNLSVENAAEILILADLHSADQLKTQAVDFINYHASDVLETSGWKSMVVSHPHLVAEAYRSLASAQCPFLGPPRKRLKQS
partner: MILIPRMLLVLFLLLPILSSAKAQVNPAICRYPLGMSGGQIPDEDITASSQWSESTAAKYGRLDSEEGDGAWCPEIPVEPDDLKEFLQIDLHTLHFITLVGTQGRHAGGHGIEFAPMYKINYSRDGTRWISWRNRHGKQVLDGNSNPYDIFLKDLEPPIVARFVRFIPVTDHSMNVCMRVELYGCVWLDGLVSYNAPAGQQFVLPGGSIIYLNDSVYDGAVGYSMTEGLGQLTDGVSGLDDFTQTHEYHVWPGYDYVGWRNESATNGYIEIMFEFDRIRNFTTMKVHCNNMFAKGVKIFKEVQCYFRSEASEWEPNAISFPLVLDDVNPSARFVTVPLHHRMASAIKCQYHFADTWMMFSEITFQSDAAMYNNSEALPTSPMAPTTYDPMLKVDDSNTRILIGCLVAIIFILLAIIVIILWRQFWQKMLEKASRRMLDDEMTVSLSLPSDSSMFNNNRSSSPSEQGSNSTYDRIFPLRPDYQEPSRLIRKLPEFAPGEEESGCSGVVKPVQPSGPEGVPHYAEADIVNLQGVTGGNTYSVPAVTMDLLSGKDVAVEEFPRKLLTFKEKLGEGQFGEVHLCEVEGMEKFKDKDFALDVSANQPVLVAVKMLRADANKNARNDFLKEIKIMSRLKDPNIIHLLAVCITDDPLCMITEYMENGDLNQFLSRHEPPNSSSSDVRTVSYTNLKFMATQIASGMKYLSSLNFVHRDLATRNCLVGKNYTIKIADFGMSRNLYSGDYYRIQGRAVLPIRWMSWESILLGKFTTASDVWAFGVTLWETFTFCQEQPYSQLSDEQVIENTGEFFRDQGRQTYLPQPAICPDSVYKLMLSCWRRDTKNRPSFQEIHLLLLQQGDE
B2: Speckle-type POZ protein (Homo sapiens), O43791 (parent)
chain: B1 chain
partner: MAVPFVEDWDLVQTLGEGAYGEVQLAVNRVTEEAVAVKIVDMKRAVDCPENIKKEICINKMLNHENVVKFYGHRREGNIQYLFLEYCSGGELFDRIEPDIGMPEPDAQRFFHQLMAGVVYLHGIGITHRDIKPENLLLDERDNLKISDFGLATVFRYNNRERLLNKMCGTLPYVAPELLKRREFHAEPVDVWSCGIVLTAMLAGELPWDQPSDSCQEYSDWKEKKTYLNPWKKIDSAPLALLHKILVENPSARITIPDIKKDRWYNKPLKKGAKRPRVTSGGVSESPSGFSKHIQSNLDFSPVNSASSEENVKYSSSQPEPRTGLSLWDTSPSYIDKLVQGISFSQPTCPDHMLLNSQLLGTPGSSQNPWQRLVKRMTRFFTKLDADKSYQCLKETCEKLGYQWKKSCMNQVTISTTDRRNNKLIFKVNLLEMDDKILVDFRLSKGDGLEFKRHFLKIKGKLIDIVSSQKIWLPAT
B3: Speckle-type POZ protein (Homo sapiens), O43791 (parent)
chain: B1 chain
partner: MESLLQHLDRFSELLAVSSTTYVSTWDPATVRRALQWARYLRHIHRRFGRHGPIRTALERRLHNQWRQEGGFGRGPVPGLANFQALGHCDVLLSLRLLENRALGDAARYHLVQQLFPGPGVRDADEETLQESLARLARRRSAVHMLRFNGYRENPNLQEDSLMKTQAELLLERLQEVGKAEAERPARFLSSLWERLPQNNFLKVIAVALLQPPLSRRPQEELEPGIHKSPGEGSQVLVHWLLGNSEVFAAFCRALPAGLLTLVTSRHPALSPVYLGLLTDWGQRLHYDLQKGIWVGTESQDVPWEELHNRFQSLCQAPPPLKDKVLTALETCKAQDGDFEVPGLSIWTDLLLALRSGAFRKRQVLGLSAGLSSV
B4: Speckle-type POZ protein (Homo sapiens), O43791 (parent)
chain: B1 chain
partner: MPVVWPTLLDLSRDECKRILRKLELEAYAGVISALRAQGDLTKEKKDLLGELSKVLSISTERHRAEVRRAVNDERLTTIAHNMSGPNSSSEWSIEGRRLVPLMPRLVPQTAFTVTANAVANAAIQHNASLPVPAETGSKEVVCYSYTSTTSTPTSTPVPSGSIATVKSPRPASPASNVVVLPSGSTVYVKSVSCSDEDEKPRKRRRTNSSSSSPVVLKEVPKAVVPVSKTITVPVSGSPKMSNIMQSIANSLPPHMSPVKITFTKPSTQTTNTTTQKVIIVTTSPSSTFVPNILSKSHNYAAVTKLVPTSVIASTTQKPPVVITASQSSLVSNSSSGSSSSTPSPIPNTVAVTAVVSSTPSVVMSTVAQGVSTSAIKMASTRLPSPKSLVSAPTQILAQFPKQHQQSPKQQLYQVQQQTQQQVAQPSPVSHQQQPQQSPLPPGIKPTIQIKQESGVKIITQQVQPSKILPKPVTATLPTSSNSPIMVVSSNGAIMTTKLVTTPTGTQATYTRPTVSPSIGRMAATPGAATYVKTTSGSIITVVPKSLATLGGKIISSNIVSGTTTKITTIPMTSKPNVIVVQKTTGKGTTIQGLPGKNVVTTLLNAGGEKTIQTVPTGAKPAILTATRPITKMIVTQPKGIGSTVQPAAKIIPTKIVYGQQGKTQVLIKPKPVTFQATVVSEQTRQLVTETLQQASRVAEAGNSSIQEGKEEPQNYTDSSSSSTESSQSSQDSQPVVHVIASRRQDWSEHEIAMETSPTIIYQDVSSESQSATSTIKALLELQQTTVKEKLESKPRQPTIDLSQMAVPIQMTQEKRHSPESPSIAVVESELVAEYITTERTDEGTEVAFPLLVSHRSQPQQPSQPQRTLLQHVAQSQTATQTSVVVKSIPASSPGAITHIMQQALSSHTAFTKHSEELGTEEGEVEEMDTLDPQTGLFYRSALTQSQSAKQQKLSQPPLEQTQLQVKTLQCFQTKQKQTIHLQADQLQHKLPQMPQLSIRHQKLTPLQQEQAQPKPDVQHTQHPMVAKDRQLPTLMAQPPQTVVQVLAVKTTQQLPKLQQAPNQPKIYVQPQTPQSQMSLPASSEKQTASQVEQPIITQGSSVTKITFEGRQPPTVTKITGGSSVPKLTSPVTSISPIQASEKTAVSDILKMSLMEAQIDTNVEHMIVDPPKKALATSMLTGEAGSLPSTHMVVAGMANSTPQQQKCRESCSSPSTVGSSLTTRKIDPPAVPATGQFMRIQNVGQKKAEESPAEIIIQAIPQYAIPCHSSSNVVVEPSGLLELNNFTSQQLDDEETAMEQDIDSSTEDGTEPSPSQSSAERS
B5: Speckle-type POZ protein (Homo sapiens), O43791 (parent)
chain: B1 chain
partner: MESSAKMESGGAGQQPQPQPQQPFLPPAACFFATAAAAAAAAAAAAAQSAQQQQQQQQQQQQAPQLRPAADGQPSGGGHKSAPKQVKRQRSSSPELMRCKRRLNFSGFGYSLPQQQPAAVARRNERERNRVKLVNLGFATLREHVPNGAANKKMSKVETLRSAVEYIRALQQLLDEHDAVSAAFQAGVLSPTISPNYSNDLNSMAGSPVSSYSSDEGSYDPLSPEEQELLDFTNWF
B6: Speckle-type POZ protein (Homo sapiens), O43791 (parent)
chain: B1 chain
partner: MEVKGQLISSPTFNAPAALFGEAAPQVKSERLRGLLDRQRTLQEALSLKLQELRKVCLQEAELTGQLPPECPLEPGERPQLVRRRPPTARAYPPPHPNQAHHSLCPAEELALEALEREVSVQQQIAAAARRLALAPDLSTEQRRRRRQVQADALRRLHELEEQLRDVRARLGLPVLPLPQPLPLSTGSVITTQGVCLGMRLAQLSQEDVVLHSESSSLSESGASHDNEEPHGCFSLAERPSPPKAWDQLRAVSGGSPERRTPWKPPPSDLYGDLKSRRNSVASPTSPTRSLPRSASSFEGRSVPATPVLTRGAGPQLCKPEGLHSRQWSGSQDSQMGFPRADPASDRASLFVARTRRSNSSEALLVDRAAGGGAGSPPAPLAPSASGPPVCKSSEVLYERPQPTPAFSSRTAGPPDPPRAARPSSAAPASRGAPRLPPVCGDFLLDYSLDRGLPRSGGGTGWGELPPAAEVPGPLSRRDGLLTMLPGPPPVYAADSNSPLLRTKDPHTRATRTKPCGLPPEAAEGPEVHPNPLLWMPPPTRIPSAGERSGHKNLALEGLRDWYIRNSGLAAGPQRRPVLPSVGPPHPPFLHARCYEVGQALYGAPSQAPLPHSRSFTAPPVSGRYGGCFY
B7: Speckle-type POZ protein (Homo sapiens), O43791 (parent)
chain: B1 chain
partner: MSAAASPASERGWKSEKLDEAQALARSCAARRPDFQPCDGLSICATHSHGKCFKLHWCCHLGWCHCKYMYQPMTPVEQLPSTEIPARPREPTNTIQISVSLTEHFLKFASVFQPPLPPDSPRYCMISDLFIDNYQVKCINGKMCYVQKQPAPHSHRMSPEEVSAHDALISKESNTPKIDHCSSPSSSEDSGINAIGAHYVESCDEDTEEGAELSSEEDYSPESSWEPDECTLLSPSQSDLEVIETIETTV

Variants of: B1
Conditions: with ddr2_human DDR2, Q16832

effect of a mutation on the interaction	Variant
with no effect	F133L

Variants of: B1
Conditions: with ddr2_human DDR2, Q16832
Remark: another data set of the same source

effect of a mutation on the interaction	Variant
with no effect	F133V

Variants of: B2
Conditions: with chk1_human CHEK1, O14757

effect of a mutation on the interaction	Variant
with no effect	Y87C

Variants of: B2
Conditions: with chk1_human CHEK1, O14757
Remark: another data set of the same source

effect of a mutation on the interaction	Variant
with no effect	F102C

Variants of: B2
Conditions: with chk1_human CHEK1, O14757
Remark: another data set of the same source

effect of a mutation on the interaction	Variant
with no effect	F133V

Variants of: B2
Conditions: with chk1_human CHEK1, O14757
Remark: another data set of the same source

effect of a mutation on the interaction	Variant
with no effect	F133L

Variants of: B3
Conditions: with fancf_human FANCF

effect of a mutation on the interaction	Variant
with no effect	F133L

Variants of: B3
Conditions: with fancf_human FANCF
Remark: another data set of the same source

effect of a mutation on the interaction	Variant
with no effect	F133V

Variants of: B3
Conditions: with fancf_human FANCF
Remark: another data set of the same source

effect of a mutation on the interaction	Variant
with no effect	F102C

Variants of: B3
Conditions: with fancf_human FANCF
Remark: another data set of the same source

effect of a mutation on the interaction	Variant
causing an interaction	Y87C

Variants of: B4
Conditions: with emsy_human EMSY

effect of a mutation on the interaction	Variant
with no effect	Y87C

Variants of: B4
Conditions: with emsy_human EMSY
Remark: another data set of the same source

effect of a mutation on the interaction	Variant
with no effect	F102C

Variants of: B4
Conditions: with emsy_human EMSY
Remark: another data set of the same source

effect of a mutation on the interaction	Variant
with no effect	F133L

Variants of: B4
Conditions: with emsy_human EMSY
Remark: another data set of the same source

effect of a mutation on the interaction	Variant
with no effect	F133V

Variants of: B5
Conditions: with ascl1_human ASCL1, P50553

effect of a mutation on the interaction	Variant
with no effect	Y87C

Variants of: B5
Conditions: with ascl1_human ASCL1, P50553
Remark: another data set of the same source

effect of a mutation on the interaction	Variant
with no effect	F133V

Variants of: B6
Conditions: with cc120_human CCDC120, Q96HB5

effect of a mutation on the interaction	Variant
with no effect	F133V

Variants of: B6
Conditions: with cc120_human CCDC120, Q96HB5
Remark: another data set of the same source

effect of a mutation on the interaction	Variant
with no effect	F133L

Variants of: B6
Conditions: with cc120_human CCDC120, Q96HB5
Remark: another data set of the same source

effect of a mutation on the interaction	Variant
with no effect	F102C

Variants of: B6
Conditions: with cc120_human CCDC120, Q96HB5
Remark: another data set of the same source

effect of a mutation on the interaction	Variant
with no effect	Y87C

Variants of: B7
Conditions: with cc070_human C3orf70, A6NLC5

effect of a mutation on the interaction	Variant
with no effect	Y87C

Variants of: B7
Conditions: with cc070_human C3orf70, A6NLC5
Remark: another data set of the same source

effect of a mutation on the interaction	Variant
with no effect	F102C

Variants of: B7
Conditions: with cc070_human C3orf70, A6NLC5
Remark: another data set of the same source

effect of a mutation on the interaction	Variant
with no effect	F133L

Variants of: B7
Conditions: with cc070_human C3orf70, A6NLC5
Remark: another data set of the same source

effect of a mutation on the interaction	Variant
with no effect	F133V
